Data published in US20260218174.

Assays:
Assay in all cases: cleavage_in_vitro
[1] = system: OMNI-XL-18 (unidentified metagenomic bacterium); conditions: TXTL; PAM NGYCCNNN
[2] = system: OMNI-XL-19 (unidentified metagenomic bacterium); conditions: TXTL; PAM NRGNRCNN
[3] = system: OMNI-XL-12 (unidentified metagenomic bacterium); conditions: TXTL; PAM relaxed NRNNCCNN, strict NRTNCCRN
[4] = system: OMNI-XL-16 (unidentified metagenomic bacterium); conditions: TXTL; PAM NARNACVN

Sequence of OMNI-XL-12 (unidentified metagenomic bacterium) (chain, as listed by the source): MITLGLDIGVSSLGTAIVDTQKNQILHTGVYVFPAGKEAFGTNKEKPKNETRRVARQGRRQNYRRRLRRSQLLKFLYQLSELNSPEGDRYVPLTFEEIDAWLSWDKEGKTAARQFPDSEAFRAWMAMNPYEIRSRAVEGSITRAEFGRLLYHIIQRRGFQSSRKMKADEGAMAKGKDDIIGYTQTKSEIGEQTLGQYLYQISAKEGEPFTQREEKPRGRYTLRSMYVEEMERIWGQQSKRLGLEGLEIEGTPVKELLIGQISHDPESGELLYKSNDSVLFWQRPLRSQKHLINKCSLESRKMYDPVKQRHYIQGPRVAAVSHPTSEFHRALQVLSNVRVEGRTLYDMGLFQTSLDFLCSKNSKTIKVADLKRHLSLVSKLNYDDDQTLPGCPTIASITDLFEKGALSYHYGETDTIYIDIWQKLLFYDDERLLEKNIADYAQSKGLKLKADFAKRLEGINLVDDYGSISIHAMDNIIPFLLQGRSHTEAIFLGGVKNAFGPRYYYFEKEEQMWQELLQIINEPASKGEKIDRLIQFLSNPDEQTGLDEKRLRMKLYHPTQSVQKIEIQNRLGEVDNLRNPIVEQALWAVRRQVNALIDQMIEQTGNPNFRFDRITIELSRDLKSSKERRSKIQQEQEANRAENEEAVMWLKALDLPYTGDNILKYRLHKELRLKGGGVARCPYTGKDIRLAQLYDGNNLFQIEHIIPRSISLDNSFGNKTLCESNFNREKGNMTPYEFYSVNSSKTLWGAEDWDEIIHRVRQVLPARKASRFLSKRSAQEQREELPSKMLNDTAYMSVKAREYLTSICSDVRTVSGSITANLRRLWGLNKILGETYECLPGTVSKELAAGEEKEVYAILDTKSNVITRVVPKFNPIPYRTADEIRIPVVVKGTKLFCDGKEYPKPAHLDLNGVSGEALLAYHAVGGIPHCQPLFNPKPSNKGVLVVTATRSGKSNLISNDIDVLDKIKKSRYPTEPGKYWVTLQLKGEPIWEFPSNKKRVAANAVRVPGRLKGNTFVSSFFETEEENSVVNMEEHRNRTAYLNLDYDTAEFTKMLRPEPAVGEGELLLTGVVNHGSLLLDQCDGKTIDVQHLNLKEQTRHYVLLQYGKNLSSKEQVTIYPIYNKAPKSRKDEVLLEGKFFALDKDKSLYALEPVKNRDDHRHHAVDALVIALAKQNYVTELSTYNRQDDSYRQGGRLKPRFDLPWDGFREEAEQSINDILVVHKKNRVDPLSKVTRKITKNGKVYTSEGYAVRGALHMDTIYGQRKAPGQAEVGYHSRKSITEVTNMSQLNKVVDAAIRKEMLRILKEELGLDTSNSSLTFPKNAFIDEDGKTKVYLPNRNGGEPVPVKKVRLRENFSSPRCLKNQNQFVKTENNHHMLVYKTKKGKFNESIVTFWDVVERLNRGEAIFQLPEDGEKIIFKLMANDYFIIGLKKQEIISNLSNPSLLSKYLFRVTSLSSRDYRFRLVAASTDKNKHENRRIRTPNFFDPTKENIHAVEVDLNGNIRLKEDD
Sequence of OMNI-XL-18 (unidentified metagenomic bacterium) (chain, as listed by the source): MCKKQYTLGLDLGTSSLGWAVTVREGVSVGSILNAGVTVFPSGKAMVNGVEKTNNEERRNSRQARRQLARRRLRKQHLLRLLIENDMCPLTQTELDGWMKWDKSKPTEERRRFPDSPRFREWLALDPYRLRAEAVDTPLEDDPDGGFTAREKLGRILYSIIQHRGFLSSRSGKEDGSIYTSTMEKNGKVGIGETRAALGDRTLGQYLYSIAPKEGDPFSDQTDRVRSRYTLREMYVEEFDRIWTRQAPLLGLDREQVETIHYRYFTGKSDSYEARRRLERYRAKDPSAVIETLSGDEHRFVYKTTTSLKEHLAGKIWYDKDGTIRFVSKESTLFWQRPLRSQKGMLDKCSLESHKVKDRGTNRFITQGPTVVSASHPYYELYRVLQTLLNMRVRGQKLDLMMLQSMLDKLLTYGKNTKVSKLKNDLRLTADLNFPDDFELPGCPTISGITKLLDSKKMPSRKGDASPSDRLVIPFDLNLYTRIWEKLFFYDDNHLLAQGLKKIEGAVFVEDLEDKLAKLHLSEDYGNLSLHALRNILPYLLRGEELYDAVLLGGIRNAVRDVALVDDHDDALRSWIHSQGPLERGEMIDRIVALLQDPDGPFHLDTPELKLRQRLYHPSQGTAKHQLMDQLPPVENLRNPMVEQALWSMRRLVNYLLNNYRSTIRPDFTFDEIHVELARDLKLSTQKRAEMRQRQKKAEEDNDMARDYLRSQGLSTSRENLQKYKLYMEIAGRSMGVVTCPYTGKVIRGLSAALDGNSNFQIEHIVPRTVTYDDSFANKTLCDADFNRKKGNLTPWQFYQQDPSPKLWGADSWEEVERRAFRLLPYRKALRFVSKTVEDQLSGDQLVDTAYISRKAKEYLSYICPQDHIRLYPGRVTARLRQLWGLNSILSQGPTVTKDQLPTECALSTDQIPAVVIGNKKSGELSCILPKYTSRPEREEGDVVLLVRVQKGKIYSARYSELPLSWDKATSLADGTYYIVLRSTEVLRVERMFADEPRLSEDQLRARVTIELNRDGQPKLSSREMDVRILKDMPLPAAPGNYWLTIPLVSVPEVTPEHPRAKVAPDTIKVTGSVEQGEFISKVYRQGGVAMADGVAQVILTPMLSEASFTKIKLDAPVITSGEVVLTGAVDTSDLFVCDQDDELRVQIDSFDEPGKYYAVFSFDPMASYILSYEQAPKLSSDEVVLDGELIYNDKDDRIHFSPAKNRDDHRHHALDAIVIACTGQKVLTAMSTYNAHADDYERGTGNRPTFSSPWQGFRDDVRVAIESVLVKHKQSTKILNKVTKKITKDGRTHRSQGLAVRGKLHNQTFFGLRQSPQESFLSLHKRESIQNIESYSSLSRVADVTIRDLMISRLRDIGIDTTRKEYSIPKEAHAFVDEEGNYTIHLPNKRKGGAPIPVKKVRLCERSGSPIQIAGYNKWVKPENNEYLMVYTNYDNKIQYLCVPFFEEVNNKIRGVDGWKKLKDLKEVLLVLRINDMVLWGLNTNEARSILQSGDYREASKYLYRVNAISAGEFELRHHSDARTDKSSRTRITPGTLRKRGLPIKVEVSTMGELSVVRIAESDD
Sequence of OMNI-XL-19 (unidentified metagenomic bacterium) (chain, as listed by the source): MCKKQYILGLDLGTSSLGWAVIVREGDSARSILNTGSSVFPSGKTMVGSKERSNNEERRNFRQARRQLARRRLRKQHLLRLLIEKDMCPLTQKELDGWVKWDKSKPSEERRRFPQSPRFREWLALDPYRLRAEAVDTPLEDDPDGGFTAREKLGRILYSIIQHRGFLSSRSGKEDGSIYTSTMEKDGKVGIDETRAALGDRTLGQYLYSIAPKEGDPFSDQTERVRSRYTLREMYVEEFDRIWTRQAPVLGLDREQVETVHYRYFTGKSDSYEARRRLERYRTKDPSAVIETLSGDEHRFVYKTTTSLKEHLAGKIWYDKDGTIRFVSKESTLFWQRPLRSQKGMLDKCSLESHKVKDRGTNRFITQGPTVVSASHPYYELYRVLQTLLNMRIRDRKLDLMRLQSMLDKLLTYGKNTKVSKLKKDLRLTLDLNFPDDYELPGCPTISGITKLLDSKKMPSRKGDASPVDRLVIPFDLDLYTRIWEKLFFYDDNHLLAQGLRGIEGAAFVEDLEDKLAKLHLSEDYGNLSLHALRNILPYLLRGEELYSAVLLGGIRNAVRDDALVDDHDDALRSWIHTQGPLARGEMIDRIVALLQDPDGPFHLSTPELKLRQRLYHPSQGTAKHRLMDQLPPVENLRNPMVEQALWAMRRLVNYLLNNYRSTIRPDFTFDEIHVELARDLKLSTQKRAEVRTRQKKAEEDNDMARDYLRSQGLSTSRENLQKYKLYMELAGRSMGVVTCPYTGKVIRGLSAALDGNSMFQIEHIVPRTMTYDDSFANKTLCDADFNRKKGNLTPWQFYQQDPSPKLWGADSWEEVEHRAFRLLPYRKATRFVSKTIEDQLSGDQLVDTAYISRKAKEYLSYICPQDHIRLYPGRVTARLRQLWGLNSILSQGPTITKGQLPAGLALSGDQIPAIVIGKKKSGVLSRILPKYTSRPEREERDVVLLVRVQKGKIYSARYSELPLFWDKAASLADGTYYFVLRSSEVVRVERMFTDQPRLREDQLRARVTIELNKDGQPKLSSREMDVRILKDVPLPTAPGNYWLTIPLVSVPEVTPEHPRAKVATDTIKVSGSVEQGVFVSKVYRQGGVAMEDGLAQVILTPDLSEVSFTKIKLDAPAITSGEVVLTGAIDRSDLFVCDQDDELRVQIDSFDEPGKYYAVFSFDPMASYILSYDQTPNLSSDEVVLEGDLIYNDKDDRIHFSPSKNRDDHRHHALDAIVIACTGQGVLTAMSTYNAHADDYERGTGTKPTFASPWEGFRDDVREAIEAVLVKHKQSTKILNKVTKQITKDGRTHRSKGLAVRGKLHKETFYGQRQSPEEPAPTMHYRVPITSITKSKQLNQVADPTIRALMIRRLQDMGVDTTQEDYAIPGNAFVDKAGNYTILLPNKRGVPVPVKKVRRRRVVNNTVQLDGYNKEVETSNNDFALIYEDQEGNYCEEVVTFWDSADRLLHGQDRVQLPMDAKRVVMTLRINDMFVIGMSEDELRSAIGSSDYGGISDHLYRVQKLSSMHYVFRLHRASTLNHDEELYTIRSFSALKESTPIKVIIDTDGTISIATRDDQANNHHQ

| Sequence | activity (1-depletion score) [1] | activity (1-depletion score) [3] | also measured |
| --- | --- | --- | --- |
| GGAAGAGCAGAGCCUUGGUCUCGUUGUGGAUUGAUCAGUUUGAAAAAACGAUCUCUUCACAACAAGGCUAUAUGCCGUAGUUGAUUCUACGCUCCCGCUUCGGCGGGAGCUUUUUUU / GGAAGAGCAGAGCCTTGGTCTCNNNNNNNN / NNNNNNNNGAGACCAAGGCTCTGCTCTTCC [OMNI-XL-18 sgRNA V2 T2 ; T2 protospacer 8N PAM library] | 0.98 |  |  |
| GGAAGAGCAGAGCCUUGGUCUCGUUGUGGAUUGAUCAGUUUGAAAAAACGAUCUUUUCACAACAAGGCUAUAUGCCGUAGUUGAUUCUACGCUCCCGCUUCGGCGGGAGCUUUUUUU / GGAAGAGCAGAGCCTTGGTCTCNNNNNNNN / NNNNNNNNGAGACCAAGGCTCTGCTCTTCC [OMNI-XL-18 sgRNA V1 T2 ; T2 protospacer 8N PAM library] | 0.97 |  |  |
| GGAAGAGCAGAGCCUUGGUCUCGUUGUGGAUUGAUCAGUUUGAAAAAACGAUCUUUUCACAACAAGGCUAUAUGCCGUAGUUGAUUCUACGCUCCCGCUUCGGCGGGAGCUUUUUUUU / GGAAGAGCAGAGCCTTGGTCTCNNNNNNNN / NNNNNNNNGAGACCAAGGCTCTGCTCTTCC [OMNI-XL-19 sgRNA V1 T2 ; T2 protospacer 8N PAM library] |  |  | activity (1-depletion score) [2]: 0.94 |
| GGAAGAGCAGAGCCUUGGUCUCGUUGUGGAUUGAUUACUUUGAAAAAAGUAAUCUCUUCAUAACAAGGCUAUAUGCCGAAGUUAUUACGGCUCCACUUCGGUGGAGCCUUUUUU / GGAAGAGCAGAGCCTTGGTCTCNNNNNNNN / NNNNNNNNGAGACCAAGGCTCTGCTCTTCC [OMNI-XL-12 sgRNA V2 T2 ; T2 protospacer 8N PAM library] |  | 0.97 |  |
| GGAAGAGCAGAGCCUUGGUCUCGUUGUGGAUUGAUUACUUUGAAAAAAGUAAUCUUUUCAUAACAAGGCUAUAUGCCGAAGUUAUUACGGCUCCACUUCGGUGGAGCCUUUUUU / GGAAGAGCAGAGCCTTGGTCTCNNNNNNNN / NNNNNNNNGAGACCAAGGCTCTGCTCTTCC [OMNI-XL-12 sgRNA V1 T2 ; T2 protospacer 8N PAM library] |  | 0.98 |  |
| GGAAGAGCAGAGCCUUGGUCUCGUUGUGGUUUGAUGUAAUUGAAAAAAUUACAUCUUAUCACAAUAAGGCUAUAUGCCGAAGGAUAAAAUGUCCUAUACUCCUGCUUCGGUAGGAGUUUUUUU / GGAAGAGCAGAGCCTTGGTCTCNNNNNNNN / NNNNNNNNGAGACCAAGGCTCTGCTCTTCC [OMNI-XL-16 sgRNA V1 T2 ; T2 protospacer 8N PAM library] |  |  | activity (1-depletion score) [4]: 0.64 |
